Laboratory results: patent publication US20210228738A1

Experiments:
[1] = biological target: hamster IgG (pooled hamster plasma)
[2] = biological target: total IgG in human serum samples and pooled human plasma
[3] = biological target: rhesus macaque IgG (NHP plasma)

B1: immunoglobulin G-degrading enzyme of Streptococcus pyogenes (IdeS) (protein)
chain: DSFSANQEIRYSEVTPYHVTSVWTKGVTPPANFTQGEDVFHAPYVANQGWYDITKTFNGKDDLLCGAATAGNMLHWWFDQNKDQIKRYLEEHPEKQKINFNGEQMFDVKEAIDTKNHQLDSKLFEYFKEKAFPYLSTKHLGVFPDHVIDMFINGYRLSLTNHGPTPVKEGSKDPRGGIFDAVFTRGDQSKLLTSRHDFKEKNLKEISDLIKKELTEGKALGLSHTYANVRINHVINLWGADFDSNGNLKAIYVTDSDSNASIGMKKYFVGVNSAGKVAISAKEIKEDNIGAQVLGLFTLSTGQDSWNQTN
- cleavage of IgG, non-reducing SDS-PAGE and Coomassie Blue staining [1]: IdeS was effective to cleave the IgG in the pooled hamster plasma and pooled human plasma in vitro
- cleavage of IgG, non-reducing SDS-PAGE and Coomassie Blue staining [2]: IdeS was effective to cleave the IgG in the pooled hamster plasma and pooled human plasma in vitro
- cleavage of IgG, non-reducing SDS-PAGE and Coomassie stain [2]: the lowest dose of IdeS cleaved all total IgG (~150 kD) to liberate the Fc fragment (~25 kD)
- cleavage of IgG, non-reducing SDS-PAGE and Coomassie stain [3]: In the NHP samples, IgG was similarly cleaved in all NAb titer groups
